Positions count from the first letter of the chain named.
B1: 21A1 antibody (mouse anti-human PDGFRα monoclonal antibody, clone number 21A1) (antibody, V domains shown)
VH: EVKLLESGGGLVQPGGSLKLSCAASGFDFSIFWMSWVRQAPGKGLEWIGEINPDSSTINYTPSLKDKFIISRDNAKNTLYLQMSKVRSEDTALYFCARQRFGPYWGQGTLVTVSA
VL: DIVMTQSHKFMSTSVGDRVSITCKASQDVSTAVAWYQQKPGQSPNLLIYSASYRYTGVPDRFTGSGSGTDFTFTISSVQAEDLAVYYCQQYYSTPYTFGGGTKLEIKR
notes: no cleavage site is stated; also called monoclonal antibody 21A1; hPDGFRα(21A1) MoAb
B2: 24A1 antibody (mouse anti-human PDGFRα monoclonal antibody, clone number 24A1) (antibody, V domains shown)
VH: DVQLQESGPGLVKPSQSLSLTCTVTGYSITSDYAWNWIRQFPGNKLEWVGYISYSGSTSYNPSLKSRISITRDTSKNQFFLQLNSVTTEDTATYYCARRDYRYGYWYFDVWGAGTTVTVSS
VL: DIQMNQSPSSLSASLGDTITITCHASQNIHVWLTWYQQKPGNIPKLLIYKASNLHTGVPSRFSGSGSGTGFTLTISSLQPEDIATYYCQQGQSYPWTFGGGTKLEIKR
notes: no cleavage site is stated; also called monoclonal antibody 24A1; mouse anti-PDGFRα antibody (24A1 antibody)
B3: humanized anti-PDGFRα antibody (24A1) (antibody, human IgG1, kappa, V domains shown)
VH: DVQLQESGPGLVKPSQTLSLTCTVSGYSITSDYAWNWIRQPPGKGLEWVGYISYSGSTSYNPSLKSRISITRDTSKNQFSLKLSSVTAADTAVYYCARRDYRYGYWYFDVWGAGTTVTVSS
VL: B2 VL with L11V, L15V, T18R, I19V, N42K, I43A, G70D, I83F
notes: also called humanized 24A1 antibody; Hu PDGFRa (24A1)

Tests used:
[1] = target: T1, human PDGFRα-Fc fusion protein (PDGFRα extracellular region [1-514 amino acids] and mouse IgG2a constant … (human; mouse, UniProt P16234 24-514); assay: EIA, PDGFRα-Fc immobilised on plate, serially diluted COS-1 culture supernatant
T1 construct: not shown: mouse IgG2a constant region
T1 sequence (P16234 24-514 limits assumed): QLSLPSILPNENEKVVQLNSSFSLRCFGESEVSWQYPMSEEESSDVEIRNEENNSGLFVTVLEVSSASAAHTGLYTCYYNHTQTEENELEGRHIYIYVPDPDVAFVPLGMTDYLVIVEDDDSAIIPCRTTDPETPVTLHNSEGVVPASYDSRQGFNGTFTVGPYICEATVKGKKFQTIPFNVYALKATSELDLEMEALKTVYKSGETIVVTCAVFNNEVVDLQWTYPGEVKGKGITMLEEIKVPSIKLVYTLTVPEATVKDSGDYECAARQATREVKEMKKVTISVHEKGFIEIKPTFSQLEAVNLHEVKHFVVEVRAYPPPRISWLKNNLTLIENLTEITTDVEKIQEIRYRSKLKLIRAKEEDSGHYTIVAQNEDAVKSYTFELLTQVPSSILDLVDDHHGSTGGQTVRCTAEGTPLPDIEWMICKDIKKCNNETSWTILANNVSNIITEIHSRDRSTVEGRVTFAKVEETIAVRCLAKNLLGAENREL

[2] = target: T1, human PDGFRα-Fc fusion protein (PDGFRα …); assay: EIA, PDGFRα-Fc immobilised on plate, serially diluted COS-1 culture supernatant, anti-human IgG constant region HRP detection

Binder	binding result [1]	binding result [2]
B1	binds	–
B2	binds	–
B3	–	binds
